Results taken from the nanobody polyreactivity screen of Harvey et al. (2022).

assay: yeast display, Sf9 membrane polyspecificity reagent, FACS + sequencing; frameworks hold sequencing errors
Outline: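 Nanobodies came from a synthetic yeast display library in Saccharomyces cerevisiae BJ5465, induced with galactose for 36–48 hours and stained for 1 hour at 4 °C with 10% biotinylated, detergent-solubilized Sf9 membrane reagent. Cells were enriched on streptavidin microbeads and then FACS-sorted, with low and high (top ~1%) gates set on anti-HA fluorescence for expression and streptavidin fluorescence for reagent binding. Each polyreactivity label reflects the gate a clone came from. Genes were amplified by colony PCR, sequenced by MiSeq 2 × 250 and filtered by CDR length.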

Row | Sequence | polyreactivity (PSR sort gate)
1 | QVQIVESCGGLVQAGGSLRLICAASGFIFTHYAMGWYRQAPGKERELVAAISSGGSTYYADSVKGRFTISRDNAKYTVYLQMNSLKPEDTAVYYCAAVWPWRYYATGENYWGQGTQVTVSS | high polyreactivity
2 | QVQIVESGGCLVQAGGSLRLSCAASGRIIVRNAMGWYRQARGTERELVADITNGGSTNYADSVKGRFTISRDNAKNTVFLEMNSLKPEDTAVDFCAADTLGVYDGDYWGQGTQVTVSS | low polyreactivity
3 | QVQIVESGGGLFQAGGSLRISCAASGFTFPNYAMGWYRQAPGKERELVAAITSGGGRSNYADCVKGRFTISRDNAKKTFYLEMNSLKPEDSAVYYCAKTRVRGSEFGYWGQGTQVTVSS | low polyreactivity
4 | QVQIVESGGGLFQAGGSLRLSCAASGGIFREYAMGWSRQAPGKERELVAVISDSGAGTYYADSVKGRFTISRDNAKNTVSLQMNSLKPEDTEVYYCAQGTARLDFPDMDPWGQGTQVTVSS | low polyreactivity
5 | QVQIVESGGGLLQAGGSLRLSCAASGRIFPANAMGWYREAPGKERELGAAIDYDGGSTYYADSVKGRFTISRDNAKNTVYLQRNSLKPVDNGVFYCDKSLTFYSWRDYGYWGQGTQVTVSS | high polyreactivity
6 | QVQIVESGGGLVEAGGSLRLTCAASGSIFGGNAMGWYRQAPGKERELVAAITSTVSTNYADSVKGRFTISRDNAKNTVYLQMNSLKPEDNAVYYCATDTSNVEGDYWGQGTQVTVSS | low polyreactivity
7 | QVQIVESGGGLVQAAGSLRLSCAASGSTLAPYAMGWYRQAPGKERELVASINWGGTTTYYADSVKGRFTNSRDNAKNKVYLQMNSLKPEDTAVYYCAALGLSWGRSGYYYEYYYWGQGTQVTVSS | high polyreactivity
8 | QVQIVESGGGLVQAGCSLRLSCAASGNIFRGYTMGWYRQAPGKEWELVATITWNGVSTFYADSVKGRFTISRDNAKNTGYLQMNSLKPEDTAVYYCAAYYPSHDYSGFGSDTYEYWGQGTQVTVSS | low polyreactivity
9 | QVQIVESGGGLVQAGGILRLSCAASGSTFSFNAMGWYRQAPGKERELVAAITGGDGTIYADSVKGRFTISRDNAKNTVYLQMNSLKPEVTAVYYCAADQWGSTEDYWFTYGYWGQGTQVTVSS | low polyreactivity
10 | QVQIVESGGGLVQAGGSLRISCAASGSIFVQYAMGLYRQAPGKERELVAAITTGGGTNYADSVKGRFKISRDNAKNTVYLQMNSLKPEDTAVYSCAADSRWLVRLYDYWGHGTQVTVSS | low polyreactivity
11 | QVQIVESGGGLVQAGGSLRISCAASGSTFPRNVMGWYRQAPGKERELVAAITSSGGSTYYADSVKGRFTISRDNAQHTVYLQMNSLKPADTAVYYCNAVSYYLGDDYWGQGTQVTVSS | high polyreactivity
12 | QVQIVESGGGLVQAGGSLRLSCAASGFIFYFYAMGWYRQAPGKERELVATITRRDDSTYYADSVKGRFTISRDNAKNTVYLQMNSLKPEDTAVYYCNADFWLLSEYDYWGQGTQVTVSS | low polyreactivity
13 | QVQIVESGGGLVQAGGSLRLSCAASGFTFLWYAMGWYRQAPGKERELVAAINSGGRTNYADSVKGRFTISRDNAKNTVYLQMNSLKPEDTAVYYCAKRRPLYAHPDDYWGQGTQVTVSS | low polyreactivity
14 | QVQIVESGGGLVQAGGSLRLSCAASGFTFRVYAMGWYRPAPGKERELVAAISARGGSTYYADSVKVRFTISRDNAKNTVDLQMNSLKPEDTAVYYCAAEPSGKRSKFYYWGQGTQETVSS | high polyreactivity
15 | QVQIVESGGGLVQAGGSLRLSCAASGGILYYYVMGWYRQAPGKERELVADISRGGSTNYADSVKGRFTISRDNAKNTVYFQMNSLKPEDTAVYYCADQDGLKQYTFDYWGQGTQVSVSS | low polyreactivity
16 | QVQIVESGGGLVQAGGSLRLSCAASGGIYTRYVMGWYRQAPGTERELVAAISSGGSTYYADSVKGRFTISRDNAKNTDYFQMNSLKPEDTAVYYCAAGYYIYLIRKFIYDYWGQGSQVTVSS | high polyreactivity
17 | QVQIVESGGGLVQAGGSLRLSCAASGGTFWANAMGWYRQAPGKERELVAAITSGGSTYADSVKGRFTISRDNAKNTVYLQMNSLKPDDTAVYYCNARRYRYRPYLSGYNYWGQGTQVTVSS | high polyreactivity
18 | QVQIVESGGGLVQAGGSLRLSCAASGGTFYVNDMGWYRQAPGKERELVATITYSGTSTYYADSVKGRFTISRDNAKNTVYLHMNSLKPEDTAVYYCATDVLLYFEPVNLEYWGQGTQVTVSS | low polyreactivity
19 | QVQIVESGGGLVQAGGSLRLSCAASGIIFDYYAMGWYIQAPGKERELVATITSGGSTNYADSVKGRFTISRDNAKNTVYLQMNSLKPEDSAVYYCAARTYWFPDIYPGLGMDYWGHGTQVTVSS | low polyreactivity
20 | QVQIVESGGGLVQAGGSLRLSCAASGIIFPVYVMGWYRQAPGKERELVAAISKRGGSTYYADSVKGRFTISRDNAKNTVYLQMNSLKPEDTAVYYCAADRSRHSFYWEYDYWGQGTQVTVSS | high polyreactivity
21 | QVQIVESGGGLVQAGGSLRLSCAASGITFDTYVMGWYRQAPGKERELVATISESVGNTYYADSVKGRFTISRDNEKNTVYLQMNILKPEDTAVDYCYTSRYYTIYTYYYWGQGTQVTVSS | low polyreactivity

Row | Sequence | polyreactivity (PSR sort gate)
22 | QVQIVESGGGLVQAGGSLRLSCAASGITFVPNAIGLYRQAPGKERELFDAITNGDSTNYADSVKGRFTISRDNAKNTVYLQMNSLKPEDTAVYYCAADSCAQRPNQGRVSLHYYWGQVTQVTVSS | low polyreactivity
23 | QVQIVESGGGLVQAGGSLRLSCAASGLTFIRYAMGWYRQAPGKERELVAAISTSGGRTYYADSVKGRFTISRDNAKNTVYLQMNSLKPEDTAVYYCAKYQSTGYTQSSYDYRGQGTQVTVSS | high polyreactivity
24 | QVQIVESGGGLVQAGGSLRLSCAASGRIFDLNAMGWYRQAPGKEREFVASITWSVGSTYYADSVKGRFTISRDNAKNTVYLQMNSLKPEVTAVYYCAARSLSWTPYYYWGQGTQVTVSS | high polyreactivity
25 | QVQIVESGGGLVQAGGSLRLSCAASGRIFVGYAMGWYRQAPGKERELFAAISRDGDNTFYADSVKGRFTISRDNAKNTVYLQMNSLKPEDTAVYYCAVDFCVWYGSAYAYDYYWGQGTQVTVSS | low polyreactivity
26 | QVQIVESGGGLVQAGGSLRLSCAASGRISVFNAMGWYRQAPGKERELVAAITSGGSTNYADSVKGRFTISRDNAKNTVYLQMNSLKPEDTAVYYCNADVYHSHEPHYDYWGQGTQVTVSS | low polyreactivity
27 | QVQIVESGGGLVQAGGSLRLSCAASGRTFDHNAMGWYRQAPGKERELVATISGSGGSTNYADSVKGRFTISRDNAKNTVDLQMNSLKPEDTAVYYCATPRVWYYNQYSELDYWGQGTQVTVSS | high polyreactivity
28 | QVQIVESGGGLVQAGGSLRLSCAASGRTFRVNAMGWYRQAPGKERELVAAISSSGGSTYYADSVKGRFTISRDNAKNTVYLQMNSLKPEDTAVYYCAAVVGGYRYDYLGQGTQVTVSS | high polyreactivity
29 | QVQIVESGGGLVQAGGSLRLSCAASGRTFVTYAMGWYRQAPGKERELVAAISRRGGSTYYADSVKGRFTISRDNAKNTVYLQMNSLKPEDTAVYYCAADPTYRTKFGYWGQGTQVTVSS | high polyreactivity
30 | QVQIVESGGGLVQAGGSLRLSCAASGSIFIFYAMGWYRQAPGKERELVADITSDGASTYYADSVKGRFTISRDNAKNTVYLQMNSLKPEDTAVYYCAADYIDSSAYDYWGQGTQVTVSS | low polyreactivity
31 | QVQIVESGGGLVQAGGSLRLSCAASGSIFVQNAMGWYRQAPGKERELVAVINSGDSTNYADSVKGRFTISRDNAKNTVYLQMNSLKPEDTAVYYCAVDDVSYYYLRAYNYELSWYGSGLDYWGQGTQVTVSS | low polyreactivity
32 | QVQIVESGGGLVQAGGSLRLSCAASGSILLYYPIGWYRQAPAKEREWVARITGSGSRTYYADSVKGRFTISRDNAKNTVFVQMHSVKPEDNAVYYCAADFSGHGWESVVGYGYWGQGTQVTVSS | low polyreactivity
33 | QVQIVESGGGLVQAGGSLRLSCAASGSTFFRYAMGWYRQAPGKERELVAAISYSGDSTYYADSVKGRFTISRDNAKNTVYLQMNSLKPEDTAVFYCNAVYFRYRYNYWGQGTQVTVSS | high polyreactivity
34 | QVQIVESGGGLVQAGGSLRLSCAASGSTFPTNAMGWYRQAPGKERELVAAITSTGSTYADSVKGRFTISRDNAKNTVYLQMNSLKPEDTAVYYCAADTQWTTPYDYWGQGTQVTVSS | low polyreactivity
35 | QVQIVESGGGLVQAGGSLRLSCAASGSTFQYYAMGWYRQAPGKERELVAGITWRDGNTYYADSVKGRFTISRDNAKNSVYLQMNSLKPEDTAVYYCAARRYFVIYFPYDYWGQGTQVTVSS | low polyreactivity
36 | QVQIVESGGGLVQAGGSLRLSCAASGSTFTIYAMGRYRQAPGKERELVAAISSGGSTYYADSVKGRFTISRDNAKNTVYLQMNSLKPEDTAVYYCAARVYLSGYGYNYWGQGTQVTVSS | high polyreactivity
37 | QVQIVESGGGLVQAGGSLRLSCAASGSTSYRYAMGWYRQATGQERALVAAIPWISDSTYYADSVKGRFTISRDNAKNTVYLQMNSLKPEDTAVYYCNTDPLVTSVTFNYWGQGTQVTVSS | low polyreactivity
38 | QVQIVESGGGLVQAGGSLRLSCAASGYTFVENAMGWYRQAPGKERELVAAISNGTITYYADSVKGRFTISRDNAKNTVYLQMNSLKPEDTAVYYCADYEYWGQGTQVTVSS | low polyreactivity
39 | QVQIVESGGGLVQAGGSLRLSCADSGSTRIYAMGWYRQAPGKERELVAAISWSGGRTYYADSVKGRFTISRDNAKNTVYLQMNSLKPEDTAVYYCAAKGSGRDYWGQGTQVTVSS | high polyreactivity
40 | QVQIVESGGGLVQAGGSLRLSCAPSGRTFVGFAKGWYRQAPGKERELVAAISRTGGSTYYADSVKGRFTISRDNAKNTVYLQMNSLKPEDTAVYYCNAVTLSSTYGGHDYWGQGTQVTVSS | high polyreactivity
41 | QVQIVESGGGLVQAGGSLRLSCASSGSTFVSYDMGWYRQAPGKERELVADISWSGVSTYADSVKGRFTISRDNAMNTVYLQMNSLKPEDTAVYYCAKDSDLYQRGGYYWGQGTQVTVSS | low polyreactivity
